For the assay, the target named is αMβ2 expressed on K562 cells (human) (UniProt P11215). The assay can be described thus: flow cytometry on cells; αMβ2/K562 cells, 45 min with 10 μg/ml Alexa Fluor 488-iC3b and 0, 1, 5 or 10 μg/ml hCD11bNb1; 1 mM Ca2+ and 1 mM Mg2+, with or without 1 mM Mn2+. On the technique in general: Flow cytometry measures light scatter and fluorescence of single cells or particles in a stream.

Fold increase of iC3b* binding in the presence of hCD11bNb1 against none data for one substance are collected here from article PMC9287160.

Turning to “Alexa Fluor 488-conjugated iC3b (from UniProt P01024 23-667; P01024 1321-1663) (ligand)”, the fold increase of iC3b* binding in the presence of hCD11bNb1 against none worked out at 2 fold.
